US20180327493A1

B1: anti-CD84 antibody from the B4 hybridoma (antibody)
heavy: EVKLVESGAELARPGASVKLSCKASGYTFTSYWMQWVKQRPGQGLEWIGAIYPGDGDTRYTQKFKGKATLTADKSSSTAYMQLSSLASEDSAVYYCARLLRTYWYFDVWGAGTTVTVSSFEAKTTAPSVYPLAPVCGDTTGSSVTLGCLVKGYFPEPVTLTWNSGSLSSGVHTFPAVLQSDLYTLSSSVTVTSSTWPSQSITCNVAHPASSTKVDKKIEPRGPTIKPCPPCKCPAPNLLGGPSVFIFPPKIKDVLMISLSPIVTCVVVDVSEDDPDVQISWFVNNVEVHTAQTQTHREDYNSTLRVVSALPIQHQDWMSGKEFKCKVNNKDLPAPIERTISKPKGSVRAPQVYVLPPPEEEMTKKQVTLTCMVTDFMPEDIYVEWTNNGKTELNYKNTEPVLDSDGSYFMYSKLRVEKKNWVERNSYSCSVVHEGLHNHHTTKSFSRTPGK
light: DIVLTQSHKFMSTSVGDRVSITCKASQDVGTAVAWYQQKPGQSPKLLIYWASTRHTGVPDRFTGSGSGTDFTLTISNVQSEDLADYFCQQYSSYPYTFGGGTKLELKRRTRADAAPTVSIFPPSSEQLTSGGASVVCFLNNFYPKDINVKWKIDGSERQNGVLNSWTDQDSKDSTYSMSSTLTLTKDEYERHNSYTCEATHKTSTSPIVKSFNRNEC
B2: anti-CD84 antibody from the B1 hybridoma (antibody)
heavy: EVKLVESGGGLVQPGGSRKLSCAASGFTFSSFGMHWVRQAPEKGLEWVAYISSGSSTIYYADTVKGRFTISRDNPKNTLFLQMTSLRSEDTAMYYCARWGWTGTGLDYWGQGTTLTVSSFEAKTTPPSVYPLAPGSAAQTNSMVTLGCLVKGYFPEPVTVTWNSGSLSSGVHTFPAVLQSDLYTLSSSVTVPSSTWPSETVTCNVAHPASSTKVDKKIVPRDCGCKPCICTVPEVSSVFIFPPKPKDVLTITLTPKVTCVVVDISKDDPEVQFSWFVDDVEVHTAQTQPREEQFNSTFRSVSELPIMHQDWLNGKEFKCRVNSAAFPAPIEKTISKTKGRPKAPQVYTIPPPKEQMAKDKVSLTCMITDFFPEDITVEWQWNGQPAENYKNTQPIMDTDGSYFVYSKLNVQKSNWEAGNTFTCSVLHEGLHNHHTEKSLSHSPGK
light: DIVLTQSPALMAASPGEKVTITCSVSSSISSSNLHWYQQKSETSPKPWIYGTSNLASGVPVRFSGSGSGTSYSLTISSMEAEDAATYYCQQWSSYPFTFGSGTKLEIKRRTRADAAPTVSIFPPSSEQLTSGGASVVCFLNNFYPKDINVKWKIDGSERQNGVLNSWTDQDSKDSTYSMSSTLTLTKDEYERHNSYTCEATHKTSTSPIVKSFNRNEC

Target: human CD84 on cells (primary CLL cells, Ramos cells, Daudi cells) (human), Q9UIB8
Sequence (Q9UIB8 22-345): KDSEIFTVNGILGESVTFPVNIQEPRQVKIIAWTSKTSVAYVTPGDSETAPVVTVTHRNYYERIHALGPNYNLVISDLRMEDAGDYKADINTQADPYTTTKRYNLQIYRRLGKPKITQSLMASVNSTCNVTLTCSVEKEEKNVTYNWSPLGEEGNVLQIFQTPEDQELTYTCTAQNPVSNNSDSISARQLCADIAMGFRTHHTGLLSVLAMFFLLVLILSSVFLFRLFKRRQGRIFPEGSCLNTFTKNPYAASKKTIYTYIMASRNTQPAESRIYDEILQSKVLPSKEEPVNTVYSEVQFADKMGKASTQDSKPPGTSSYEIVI
Experiment: cell-based or functional assay

Binder	% apoptosis, Ramos cells (Magic Red, FACS)	% apoptosis, purified CLL cells (Magic Red, FACS)	annexin positive total population of CLL cells (Annexin 7AAD staining)
B1	39 % apoptosis	75 % apoptosis	55.8%
B2	45 % apoptosis	73 % apoptosis	–
